According to US20050032180A1, “Method for the production of (r)-and (s)-8-chloro-6-hydroxy-octanic acid alkyl esters by enzymatic reduction” (priority 2001, published 2005):

Test: analytical assay of enzyme activity with compounds of the formula I as substrate
Type: biochemical
Description: The configuration of the resulting 8-chloro-6-hydroxyoctanoic acid alkyl esters is determined by the enzyme employed. Thus, reduction of 8-chloro-6-oxooctanoic acid alkyl esters using alcohol dehydrogenase from Thermoanaeorubium brokii results in enantiopure (R)-8-chloro-6-hydroxyoctanoic acid alkyl esters. In the case of reduction using Lactobacillus brevis alcohol dehydrogenase, there is enantioselective formation of (S)-8-chloro-6-hydroxyoctanoic acid alkyl esters (ee>65%).

B1: LKADH: Lactobacillus kefir ADH, commercially available (protein, UniProt Q6WVP7 1-252, looked up)
NADP-dependent (R)-specific …: MTDRLKGKVAIVTGGTLGIGLAIADKFVEEGAKVVITGRHADVGEKAAKSIGGTDVIRFVQHDASDEAGWTKLFDTTEEAFGPVTTVVNNAGIAVSKSVEDTTTEEWRKLLSVNLDGVFFGTRLGIQRMKNKGLGASIINMSSIEGFVGDPTLGAYNASKGAVRIMSKSAALDCALKDYDVRVNTVHPGYIKTPLVDDLEGAEEMMSQRTKTPMGHIGEPNDIAWICVYLASDESKFATGAEFVVDGGYTAQ
B1 gave an Activity (Standard acetophenone, cofactor NADP(H), 50 mM Kpi, 0.1 mM MgCl2, pH 7.0, iso-propanol 200 mM) of 10%.

B2: TBADH: Thermoanaerobium brokii ADH, commercially available (protein, UniProt P14941 1-352, looked up)
NADP-dependent isopropanol …: MKGFAMLSIGKVGWIEKEKPAPGPFDAIVRPLAVAPCTSDIHTVFEGAIGERHNMILGHEAVGEVVEVGSEVKDFKPGDRVVVPAITPDWRTSEVQRGYHQHSGGMLAGWKFSNVKDGVFGEFFHVNDADMNLAHLPKEIPLEAAVMIPDMMTTGFHGAELADIELGATVAVLGIGPVGLMAVAGAKLRGAGRIIAVGSRPVCVDAAKYYGATDIVNYKDGPIESQIMNLTEGKGVDAAIIAGGNADIMATAVKIVKPGGTIANVNYFGEGEVLPVPRLEWGCGMAHKTIKGGLCPGGRLRMERLIDLVFYKRVDPSKLVTHVFRGFDNIEKAFMLMKDKPKDLIKPVVILA
For B2, the Activity (Standard 2-butanone, cofactor NADP(H), 50 mM Tris, 1 mM DTT, pH 7.8, HCO2Na, FDH, 37° C.) was 6%.

B3: Y-ADH: yeast alcohol dehydrogenase, commercially available (protein, UniProt P00330 2-348, looked up)
Alcohol dehydrogenase 1: SIPETQKGVIFYESHGKLEYKDIPVPKPKANELLINVKYSGVCHTDLHAWHGDWPLPVKLPLVGGHEGAGVVVGMGENVKGWKIGDYAGIKWLNGSCMACEYCELGNESNCPHADLSGYTHDGSFQQYATADAVQAAHIPQGTDLAQVAPILCAGITVYKALKSANLMAGHWVAISGAAGGLGSLAVQYAKAMGYRVLGIDGGEGKEELFRSIGGEVFIDFTKEKDIVGAVLKATDGGAHGVINVSVSEAAIEASTRYVRANGTTVLVGMPAGAKCCSDVFNQVVKSISIVGSYVGNRADTREALDFFARGLVKSPIKVVGLSTLPEIYEKMEKGQIVGRYVVDTSK
Work on B3 yielded an Activity (Standard 2-butanone, cofactor NAD(H), 100 mM TEA, pH 7.0) of 20%.
